Test results from US20200040059A1.
Values belong to the substance of their own block, whether it stands above or below them.

Assays:
[1] = biological target: human PD-L1, full-length, expressed on transfected Expi293 cells (human) (UniProt Q9NZQ7); test: flow cytometry on PD-L1-expressing Expi293 cells
[2] = biological target: human CD28, full-length, expressed on transfected Expi293 cells (human) (UniProt P10747); test: flow cytometry on CD28-expressing Expi293 cells
[3] = biological target: PD-1 (Homo sapiens (Human)) (UniProt Q15116); test: flow cytometry, cells expressing PD-1
[4] = biological target: CD80 (Homo sapiens (Human)) (UniProt P33681); test: flow cytometry, cells expressing CD80
[5] = biological target: CTLA4 (human) (UniProt P16410); test: flow cytometry on HEK293 cells transfected with CTLA4
Chain of CTLA4 (human) (P16410 36-223 limits assumed): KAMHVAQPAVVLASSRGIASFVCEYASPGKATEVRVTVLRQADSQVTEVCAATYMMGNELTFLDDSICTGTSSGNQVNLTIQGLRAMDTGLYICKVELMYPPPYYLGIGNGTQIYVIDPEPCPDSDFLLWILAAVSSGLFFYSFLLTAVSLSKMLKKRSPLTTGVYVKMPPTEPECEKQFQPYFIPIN

[6] = biological target: CD28 (human) (UniProt P10747); test: flow cytometry on HEK293 cells transfected with CD28
[7] = biological target: PD-L1 (human) (UniProt Q9NZQ7); test: flow cytometry on HEK293 cells transfected with PD-L1
Chain of PD-L1 (human) (Q9NZQ7 19-290 limits assumed): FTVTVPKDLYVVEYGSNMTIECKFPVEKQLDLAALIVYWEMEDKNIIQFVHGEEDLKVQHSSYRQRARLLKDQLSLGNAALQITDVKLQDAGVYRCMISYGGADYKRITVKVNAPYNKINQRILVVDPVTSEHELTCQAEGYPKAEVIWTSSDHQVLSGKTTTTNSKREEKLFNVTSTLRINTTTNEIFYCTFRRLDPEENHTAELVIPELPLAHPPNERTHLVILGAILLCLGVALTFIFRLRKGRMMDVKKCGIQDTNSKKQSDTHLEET

[8] = biological target: human PD-L1, full length, on transfected HEK293 cells (human) (UniProt Q9NZQ7); test: flow cytometry, Fc fusion at 22.2 nM on HEK293 cells transfected with PD-L1
Chain of human PD-L1, full length, on transfected HEK293 cells (human) (Q9NZQ7 19-290 limits assumed): as above

[9] = biological target: human CTLA4, full length, on transfected HEK293 cells (human) (UniProt P16410); test: flow cytometry, Fc fusion at 66.6 nM on HEK293 cells transfected with CTLA4
Chain of human CTLA4, full length, on transfected HEK293 cells (human) (P16410 36-223 limits assumed): as the sequence (P16410 36-223 limits assumed) above

[10] = biological target: human CTLA-4, full-length, expressed on transfected Expi293 cells (human) (UniProt P16410); test: flow cytometry on CTLA-4-expressing Expi293 cells
Chain of human CTLA-4, full-length, expressed on transfected Expi293 cells (human) (P16410 36-223 limits assumed): as above

[11] = biological target: human CD28, full length, on transfected HEK293 cells (human) (UniProt P10747); test: flow cytometry, Fc fusion at 66.6 nM on HEK293 cells transfected with CD28

Chain of human PD-L1, full-length, expressed on transfected Expi293 cells (human) (Q9NZQ7 19-290 limits assumed): as the sequence (Q9NZQ7 19-290 limits assumed) above
Chain of CD80 IgV Fc (wild-type CD80 IgV domain fused to Fc) (P33681 35-141 limits assumed): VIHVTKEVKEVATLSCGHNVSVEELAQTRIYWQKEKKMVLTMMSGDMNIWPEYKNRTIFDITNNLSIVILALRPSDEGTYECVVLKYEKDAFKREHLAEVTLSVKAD

Substance: CD80 variant K36E/I67T/L70Q/A91G/T120S/T130A/N152T ECD-Fc fusion (from UniProt P33681 35-242)
MFI [1]: 5 MFI | MFI [2]: 8 MFI

Substance: CD80 IgV-Fc V22I/L70M/A71D (from UniProt P33681 35-141) (Fc fusion)
MFI at 66.6 nM [6]: 22800 MFI | MFI at 22.2 nM [7]: 33400 MFI

Substance: variant PD-L1 ECD-Fc I36T, I83T, M97L, K144E, P198T (Fc fusion)
MFI at 20 nM [3]: 62 | MFI at 20 nM [4]: 6220

Substance: CD80 IgV-Fc M42I/I61V/A71D (from UniProt P33681 35-141) (Fc fusion)
MFI at 66.6 nM [5]: 54500 MFI | MFI at 66.6 nM [6]: 6070 MFI | MFI at 22.2 nM [7]: 4230 MFI

Substance: variant PD-L1 ECD-Fc I36S, M41K, M97L, K144Q, R195G, E200K, H202Q, L206F (Fc fusion)
MFI at 20 nM [3]: 3500 | MFI at 20 nM [4]: 68700

Substance: variant PD-L1 ECD-Fc Y10F, M18V, S99G, Q138R, T203A (from UniProt Q9NZQ7 19-238) (Fc fusion)
MFI at 20 nM [3]: 70 | MFI at 20 nM [4]: 412

Substance: variant PD-L1 ECD-Fc I36T, M97L, Q155H, F193S, N201Y (Fc fusion)
MFI at 20 nM [3]: 69 | MFI at 20 nM [4]: 1250

Substance: CD80 IgV-Fc E35D/M47I/L65P/D90N (from UniProt P33681 35-141) (Fc fusion)
MFI at 66.6 nM [5]: 4410 MFI | MFI at 66.6 nM [6]: 2530 MFI | MFI at 22.2 nM [7]: 4030 MFI

Substance: CD80 variant V4M/L70Q/A91G/T120S/T130A ECD-Fc fusion
MFI [1]: 6 MFI | MFI parental ratio (ratio to WT CD80 ECD-Fc) [1]: 0.09 | MFI [2]: 89 MFI | MFI parental ratio (ratio to WT CD80 ECD-Fc) [2]: 0.94 | MFI [10]: 263 MFI | MFI parental ratio (ratio to WT CD80 ECD-Fc) [10]: 1.26

Substance: CD80 IgV-Fc T13R/C16R/L70Q/A71D (from UniProt P33681 35-141) (Fc fusion)
MFI at 66.6 nM [5]: 197000 MFI | MFI at 66.6 nM [6]: 16100 MFI | MFI at 22.2 nM [7]: 9520 MFI

The next lines start with the values.

MFI at 20 nM [3]: 114 | MFI at 20 nM [4]: 136
Substance: variant PD-L1 ECD-Fc G15A, I36T, V129D (from UniProt Q9NZQ7 19-238) (Fc fusion)

MFI at 66.6 nM [5]: 61300 MFI | MFI at 66.6 nM [6]: 4840 MFI | MFI at 22.2 nM [7]: 20900 MFI
Substance: CD80 IgV-Fc L25S/E35D/M47I/D90N (from UniProt P33681 35-141) (Fc fusion)

MFI at 66.6 nM [5]: 2000 MFI | MFI at 66.6 nM [6]: 2660 MFI | MFI at 22.2 nM [7]: 4410 MFI
Substance: CD80 IgV-Fc T79P (from UniProt P33681 35-141) (Fc fusion)

MFI at 22.2 nM [8]: 40600 MFI | MFI at 66.6 nM [9]: 102000 MFI
Substance: CD80 variant IgV-Fc E35D/M43L/L70M (from UniProt P33681 35-141) (Fc fusion)

MFI [10]: 14 MFI
Substance: CD80 variant L70Q/A91G/T110A/T120S/T130A ECD-Fc fusion (from UniProt P33681 35-242)

MFI at 66.6 nM [6]: 4260 MFI | MFI at 22.2 nM [7]: 5530 MFI
Substance: CD80 IgV-Fc P51A/A71D (from UniProt P33681 35-141) (Fc fusion)

MFI at 66.6 nM [5]: 50200 MFI | MFI at 66.6 nM [6]: 3400 MFI | MFI at 22.2 nM [7]: 6020 MFI
Substance: CD80 IgV-Fc L72P/T79I (from UniProt P33681 35-141) (Fc fusion)

MFI [1]: 6 MFI | MFI [2]: 32 MFI | MFI [10]: 65 MFI
Substance: CD80 variant T28S/L70Q/A91G/E95K/T120S/T130A ECD-Fc fusion (from UniProt P33681 35-242)

MFI at 66.6 nM [11]: 18600 MFI | MFI at 22.2 nM [8]: 1690 MFI | MFI at 66.6 nM [9]: 45000 MFI
Substance: CD80 variant IgV-Fc L70Q/A71D (from UniProt P33681 35-141) (Fc fusion)

MFI at 66.6 nM [11]: 1620 MFI | MFI at 22.2 nM [8]: 1770 MFI | MFI at 66.6 nM [9]: 20700 MFI
Substance: CD80 IgV Fc (wild-type CD80 IgV domain fused to Fc) (from UniProt P33681 35-141) (Fc fusion)

MFI [2]: 41700 MFI | MFI [10]: 49400 MFI
Substance: CD80 variant K89R/D90K/A91G/F92Y/K93R/N122S/N178S ECD-Fc fusion (from UniProt P33681 35-242)

MFI at 66.6 nM [11]: 15900 MFI | MFI at 22.2 nM [8]: 3400 MFI | MFI at 66.6 nM [9]: 76900 MFI
Substance: CD80 variant IgV-Fc M47V/I69F/A71D/V83I (from UniProt P33681 35-141) (Fc fusion)

MFI [1]: 6 MFI | MFI [2]: 124 MFI | MFI [10]: 165 MFI
Substance: CD80 variant N63S/L70Q/A91G/T120S/T130A ECD-Fc fusion (from UniProt P33681 35-242)

MFI at 22.2 nM [8]: 1050 MFI | MFI at 66.6 nM [9]: 59800 MFI
Substance: CD80 variant IgV-Fc Q27L/E35D/M47I/T57I/L70Q/E88D (from UniProt P33681 35-141) (Fc fusion)
